Assay results: US20240229081

Test system: Nla type I-C Cascade-Cas3 in E. coli (Neisseria lactamica)
Test: cell_activity
Conditions: PAM TTC; E. coli plasmid interference

Nla native CRISPR spacer 1 crRNA ; spacer 1 target with TTC PAM, plasmid
activity: 1000 fold
